Assay results taken from patent publication US20250026813A1 (published 2025).

B1: YANG-1201 (antibody, V domains shown)
VH: QVQLQESGPGLVKPSGTLSLTCAVSGDSISNSKWWSWVRQPPGKGLEWIGEIFHSGSTNYNPSLKSRVTISVDKSQNQFSLKLNSVTAADTAVYYCARSASLYYYYGVDVWGQGTTVTVSS
VL: EIVLTQSPGTLSLSPGERATLSCRASQSVSNNYLAWYQQKPGQAPRLLIYGTSRRDTGIPDRFSGSGSGTDFTLTISRLEPEDFAVYYCEQYGSLPRTFGQGTKVEIK
B2: YANG-1207 (antibody, V domains shown)
VH: QVQLVESGGGVVQPGRSLRLSCAASGFTFSSYGMHWVRQAPGKGLEWVSVIWYDGTNKYYADSVKGRFTISRDNSKNTLYLQMNSLRAEDTAVYYCAREGVEFTGYFDYWGQGTLVTVSS
VL: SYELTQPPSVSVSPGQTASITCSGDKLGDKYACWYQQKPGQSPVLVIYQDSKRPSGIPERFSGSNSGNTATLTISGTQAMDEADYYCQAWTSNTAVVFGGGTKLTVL
B3: YANG-1108 (antibody, V domains shown)
VH: QVQLVESGGGVVHPGRSLRLSCVVSGFTFSGYGMYWVRQAPGKGLEWVAVISKDGSDKYYADSVKGRFTISRDNSKNTLNLQMNSLRAEDTAVFYCAKERTFQGSGSYYNNYFYYGMDVWGQGTTVTVSS
VL: AIQLTQSPSSLSASVGDRVTITCRASQGISSALAWYQQKPGKAPNLLIYDASSLESGVPSRFSGSGFGTDFTLTINSLQPEDFASYYCQQFKSYPLTFGGGTKVEIK
B4: YANG-1112 (antibody, V domains shown)
VH: QITLKESGPTLVKPTQTLTLTCTFSGFSLSTGGVAVGWIRQPPGKALEWLAIIYWDDDKRYSPSLKSRLTITKDTSKNQVVLTMTNMDPVDTATYYCAHWGKDSFDIWGQGTMVTVSS
VL: SYELTQPPSVSVSPGQTARITCSGDALPRKYAYWYQQKSGQAPVLVIYEDNNRPSGIPERFSGSSSGTTATLTVSGAQVEDEADYYCYSTDTSGYVVFGGGTKLTVL
B5: YANG-1109 (antibody, V domains shown)
VH: EVQLVESGGGLIQPGGSLRLSCGVSGLTVSRNYMNWVRQAPGKGLEWVSVIYSGGSTFYADSVKGRFTISRDNSKNTLYLQMISLRAEDSGVYYCAREGFGMDVWGQGTTVTVSS
VL: DIQLTQSPSFLSASVGDRVTITCWASQGISNYLAWYQQKPGKAPKLLIYSASTLQSGVPSRFSGSGSGTEFTLTISNLQPADIATYYCQLLNSHPCSFGQGTKLEIK
B6: YANG-1205 (antibody, V domains shown)
VH: QVQLVQSGAEVKKPGASVKVSCKASGYTFTSYCIHWVRQAPGQGLEWMGIINPSGGGTIFAQKFQGRVTMTRDTSTTTVYMELGSLRSDDTALYYCARGWSYDFWSGPDYWGQGTLVSVSS
VL: DIVMTQTPLSLSVTPGQPASISCKSSQSLLHSDGKTYLYWYLQKPGQPPQLLIYEVSNRFSGVPDRFSGSGSGTDFTLKISRVGAEDVGIYYCMHSIKLPPTFGQGTKVEIK
B7: YANG-1110 (antibody, V domains shown)
VH: QVQLAESGGGVVQPGRSLRLSCVVSGFTFSNYGMHWVRQAPGKGLEWVVFISNDGSNEDFVDSVKGRFTISRDNSKNTLYLQMNSLRAEDTAVYYCAKGGYFYGSGNYYYYYGMDVWGQGTTVTVSS
VL: QPVLTQSSSASASLGSSVKLTCTLSSVHSNHIIAWHQQQPGKAPRYLMKLEGSGRYSKGSGVPDRFSGSSSEADRYLTISNLQSEDEADYYCETWDNNTYVFGSGTKVTVL
B8: YANG-1111 (antibody, V domains shown)
VH: EVQLVESGGGLIQPGGSLRLSCAASGFTFSSYSINWVRQAPGKGLEWVSFISGSSTTIYYADSVKGRFTISRDSAKNSLYLQMNSLRDEDTAVYYCARGLRSSIAPRPDYFDSWGQGILVTVSS
VL: SYVLTQPPSVSVAPGKTARITCGGNNIGSKGVHWYQQKPGQAPVLVIYYDSDRPSGIPERFSGSNSGNTATLTISRVEAGDEADYSCQVWDSSSDHPVFGGGTKLTVQ
B9: IMPI-002 (antibody, V domains shown)
VH: EVQLVESGGGLIQPGGSLRLSCAASGVTVSSNYMSWVRQAPGKGLEGVSVIYSGGSTYYADSVKGRFTISRDNSKNTLYLQMNSLRAEDTAVYYCARDTVVYGMDVWGQGTTVTVSS
VL: DIQLTQSPSFLSASVGDRVTITCWASQGISSYLAWYQQKPGKAPKLLIYAASTLQSGVPSRFSGSGSGTEFTLTISSLQPEDFATYYCQQLNSYPLTFGGGTKVEIK
B10: IMPI-052 (antibody, V domains shown)
VH: EVQLVESGGGLIQPGGSLRLSCAASGVTVSSNYMNWVRQAPGKGLEGVSVIYSGGTTYYADSVKGRFTISRDNSKNTLYLQMNSLRAEDTAVYYCARDTVVYGMDVWGQGTTVTVSS
VL: DIQLTQSPSFLSASVGDRVTITCWASQGISSYLAWYQQKPGKAPKLLIYTASTLQSGVPSRFSGSGSGTEFTLTISSLQPEDFATYYCQQLNSYPLTFGGGTKVEIK
B11: IMPI-056 (antibody, V domains shown)
VH: EVQLVESGGGLIQPGGSLRLSCAASGLTVSSNYMNWVRQAPGKKLEWVSVIYSGGSTFYADSVRGRFTISRDNSKNTLFLQMNSLRAEDSAVYYCARDLGPYGVDVWGQGTTVTVSS
VL: DIQLTQSPSFLSASVGDRVTITCWASQGISSYLAWYQQKPGKAPKLLIYAASTLQSGVPSRFSGSGSGTEFTLTISSLQPEDFATYYCQQLNSYPLTFGQGTRLEIK
B12: YANG-1203 (antibody, V domains shown)
VH: EVRLVESGGALVQPGRSLRLSCAASGFIFDGYAMHWVRQVPGKGLEWVSGISWNSGNIGYADSVKGRFTISRDNAKNSLYLQMNSLRAEDTALYYCAKDIRPSGKYYYGMDVWGQGTTVTVSS
VL: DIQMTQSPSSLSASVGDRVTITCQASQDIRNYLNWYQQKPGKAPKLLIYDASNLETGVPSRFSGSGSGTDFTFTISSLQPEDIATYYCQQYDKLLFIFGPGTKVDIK
B13: YANG-1202 (antibody, V domains shown)
VH: EMQLVESGGGLVQPGGSLRLSCAASGFTFSSFWMRWVRQAPGKGLEWVANIKQDGTEKYYVDSVKGRFTISRDNAKNSLYLQMNSLRAEDTAVYYCVRDRVGGDYYYYDMDVWGQGTTVTVSS
VL: DIQMTQSPSSLSASVGDRVTITCRASQDISNYLAWFQQKPGKAPKSLIYAASSLQSGVPSKFSGSGSGTDFTLTISGLQPEDSATYYCQQYNSYPRTFGQGTKVEIK
B14: YANG-1119 (antibody, V domains shown)
VH: EVQLVESGGGLVKPGGSLRLSCAASGFTFSSYSMNWVRQAPGKGLEWVSSISTGSSYIFYADSVKGRFTISRDNAKNSLYLQMNSLRAEDTAVYYCAKTGDLPFFDYWGQGTLVTVSS
VL: QSALTQPASVSGSPGQSITISCTGTSSDVGRYNYVSWYQQHPGKAPKLMIYEVSNRPSGVSNRFSGSKSGNTASLTISGLQAEDEADYYCSSYTSSSTMVFGGGTKLTVL
B15: YANG-1116 (antibody, V domains shown)
VH: EVQLVESGGGLVKPGGSLRLSCEASGFNFRSYALNWVRQAPGKGLEWVSSISTGSSYIFYADSVKGRFTISRDNAKNSLSLQMNSLRAEDTAVYYCAKTGDLPFFDYWGQGTLVTVSS
VL: QSALTQPASVSGSPGQSITISCTGTSSDVGRYNYVSWYQQHPGKAPKLMIYEVSNRPSGVSNRFSGSKSGNTASLTISGLQAEDEADYYCISYTSSSTMVFGGGTKLTVL
B16: YANG-1114 (antibody, V domains shown)
VH: EVHLVESVGGLVKPGGSLRLSCAASGFTFSSYSMNWVRQAPGKGLEWVSSISTGSSYIFYADSVKGRFTISRDNAKNSLYLQMNSLRAEDTAVYYCAKTGDLPFFDYWGQGTLVTVSS
VL: QSALTQPASVSGSPGQSITISCTGTSSDVGRYNYVSWYQQHPGKAPKLMIYEVSNRPSGVSNRFSGSKSGNTASLTISGLQAEDEADYYCSSYTSSSTMVFGGGTKLTVL
B17: YANG-1113 (antibody, V domains shown)
VH: EVQLVESGGGLVKPGGSLRLSCAASGFTFSSYSMNWVRQAPGKGLEWVSSISTGSSYIFYADSVKGRFTMSRDNAKNSLYLQMNSLRAEDTAVYYCAKTGDLPFFDYWGQGTPVTVSS
VL: QSALTQPASVSGSPGQSITISCTGTSSDVGRYNYVSWYQQHPGKAPKLMIYEVSNRPSGVSNRFSGSKSGNTASLTISGLQAEDEADYYCSSYTSSSTMVFGGGTKLTVL
B18: YANG-1115 (antibody, V domains shown)
VH: EVQLVESGGGLVKPGGSLRLSCAASGFTFSSYSMNWVRQAPGKGLEWVSSISTGSSYIFYADSVKGRFTISRDNAKNSLYLQMNSLRAEDTAVYYCAKTGDLPFFDYWGQGTLVTVSS
VL: QSALTQPASVSGSPGQSITISCTGTSSDVGRYNYVSWYQQHPGKAPKLMIYEVSNRPSGVSNRFSGSKSGNTASLTISGLQAEDEADYYCSSYTSSSTMVFGGGTKLSVL
B19: YANG-1118 (antibody, V domains shown)
VH: EVQLVESGGGLVKPGGSLRLSCAASGFTFSSYALNWVRQAPGKGLEWVSSISTGSSYIFYADSVKGRFTISRDNAKHSLSLQMNSLRAEDTAVYYCAKTGDLPFFDYWGQGTLVTVSS
VL: QSALTQPASVSGSPGQSITISCTGTSSDVGRYNYVSWYQQHPGKAPKLMIYEVSNRPSGVSNRFSGSKSGNTASLTISGLQAEDEADYYCISYTSSSTMVFGGGTKLTVL
B20: YANG-1117 (antibody, V domains shown)
VH: EVQLVESGGGLVKPGGSLRLSCAASGFTFSSYSVNWVRQAPGKGLEWVSSISTGSSYIFYADSVKGRFTISRDNAKNSLYLQMNSLRAEDTAVYYCVKTGDLPFFDYWGQGTLVTVSS
VL: QSALTQPASVSGSPGQSITISCTGTRSDVGRYNYVSWYQQHPGKAPKLMIYEVTNRPSGVSNRFSGSKSGNTASLTISGLQAEDEADYYCSSYTNNSTMVFGGGTKLTVL
B21: YANG-1206 (antibody, V domains shown)
VH: QVHLVESGGGMVQPGRSLRLSCAASGFTFSIYAMHWVRQAPGKGLEWVAVISYDGSNKYYADSVKGRFTISRDNSKNTLYLQMNSLRAEDTAVYYCAKVYGGSYWGGFDYWGQGTLVTVSS
VL: QSVLTQPPSVSGAPGQRVTISCTGTSSNIGSIYDVHWYQQLPGTAPKLLIYGNSNRPSGVPDRFSGSKSGTSASLAITGLQAEDEADYYCQSYDTSLSGSWVFGGGTKLNVL
B22: YANG-1204 (antibody, V domains shown)
VH: QVQLVESGGGVVQPGRSLRLSCAVSGFTFSNYGIHWVRQAPGKGLVWVAVISYEGSIKYYGDSVKGRFTISRDNSKNTLYLQMNSLRAEDTAVYYCARGAVAGNDAFDIWGQGTMVTVSS
VL: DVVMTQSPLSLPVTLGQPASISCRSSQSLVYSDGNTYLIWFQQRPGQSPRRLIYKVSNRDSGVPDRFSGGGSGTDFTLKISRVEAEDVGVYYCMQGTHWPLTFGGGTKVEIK

What was measured:
[1] = target: SARS-CoV-2 spike protein bearing furin mutation and truncation in retention sequence, on pseudoviral particles (SARS-CoV-2, UniProt P0DTC2 14-1255); assay: cell-based or functional assay
[2] = target: full-length stabilised spike trimer protein of SARS-CoV-2 virus (in-house, soluble ECD with trimeris (SARS-CoV-2, UniProt P0DTC2 14-1208; P10104 458-484)

| Binder | PV neutralization % (Ab 1 ug/mL) [1] [%] | PV neutralisation IC50 [1] [nM] | HTRF deltaF [2] [deltaF] |
| --- | --- | --- | --- |
| B1 | 40.6 |  |  |
| B2 | 39.9 |  |  |
| B3 | 95.2 |  |  |
| B4 | 89.2 | 0.52 |  |
| B5 | 99.4 | 1.81 |  |
| B6 | 40.2 |  |  |
| B7 | 99.3 |  |  |
| B8 | 72.7 | 1.82 |  |
| B9 |  |  | 913 |
| B10 |  |  | 1130 |
| B11 |  |  | 1630 |
| B12 | 41.4 |  |  |
| B13 | 51.9 |  |  |
| B14 | 99 | 0.96 |  |
| B15 | 99.2 |  |  |
| B16 | 93.2 |  |  |
| B17 | 97.6 |  |  |
| B18 | 97.8 |  |  |
| B19 | 99.3 | 0.25 |  |
| B20 | 97.8 |  |  |
| B21 | 45.9 |  |  |
| B22 | 44.8 |  |  |
